Assay results published in patent US20210380703A1.
Changes are numbered by the printed parent chain.

B1: 375_E03 (antibody, V domains shown)
VH: EVQLLESGGGLVQPGGSLRLSCAASGFTFSDYSMNWVRQAPGKGLEWVANINYNGGYTGYADSVKGRFTISRDNSKNTLYLQMNSLRAEDTAVYYCARGANWHDTHLDYWGQGTLVTVSS
VL: DIQMTQSPSSLSASVGDRVTITCRASQSILTYLNWYQQKPGKAPKLVIYAATSLASGVPSRFSGSGSGTDFTLTISSLQPEDFATYYCQQSYDNPLTFGGGTKVEIK
B2: 372_B11 (antibody, V domains shown)
VH: B1 VH with D31S, N35H, N50G, G55S, G59S, G99A
VL: B1 VL with L33V, N94T
B3: 369_B03 (antibody, V domains shown)
VH: B1 VH with D31S, S33G, N35H, N50G, G59S, G99A, H106A
VL: B1 VL with L33V, D93E, N94L
B4: 375_G04 (antibody, V domains shown)
VH: B1 VH with D31S, S33G, N50S, G55S
VL: B1 VL with L30V, T31S, L33V, V47L, N94S
B5: 376_E11 (antibody, V domains shown)
VH: B1 VH with D31S, A49S, N50G, G59S, H106A
VL: B1 VL with L33V, L54R, D93E, N94L
B6: 375_G05 (antibody, V domains shown)
VH: B1 VH with D31S, N50G, G59S, H106A
VL: B1 VL with L30V, T31S, V47L, A51V, L54R, N94S
B7: 371_H02 (antibody, V domains shown)
VH: B1 VH with S30D, A49S, N50G, T58K, G59S, G99A
VL: B1 VL with L30I, T31S, D93E
B8: 368_D09 (antibody, V domains shown)
VH: B1 VH with S30D, D31S, S33G, N35H, N50G, G55S, T58K, G59S, G99A
VL: B1 VL with L30V, T31S, L33V, V47L
B9: 375_E10 (antibody, V domains shown)
VH: B1 VH with D31S, A49S, N50G, G59S, H106A
VL: B1 VL with T31S, L54R
B10: 369_G10 (antibody, V domains shown)
VH: B1 VH with D31S, S33G, N35H, N50S, G59S, G99A, H106A
VL: B1 VL with T31S, L54R, N94S
B11: 376_B03 (antibody, V domains shown)
VH: B1 VH with D31S, N50G, G55S, T58K, G59S, H106A
VL: B1 VL with T31S, L33V, A51V, L54R, A55H, N94S
B12: 365_B04 (antibody, V domains shown)
VH: B1 VH with D31S, S33G, N35H, N50S, G55S, G59S, G99A, H106A
VL: B1 VL with V47L, L54R, A55H, Y92D, D93E, N94S
B13: 368_C09 (antibody, V domains shown)
VH: B1 VH with D31S, N35H, A49S, G99A
VL: B1 VL with L33V, V47L, N94L
B14: 373_E11 (antibody, V domains shown)
VH: B1 VH with S30D, D31S, S33G, N35H, N50S, G59S, G99A, H106A
VL: B1 VL with L30V, T31S, L54R, N94S
B15: 372_A09 (antibody, V domains shown)
VH: B1 VH with S30D, D31S, S33G, A49S, N50G, G59S, G99A, H106A
VL: B1 VL with T31S, L54R, D93N, N94S
B16: 371_D12 (antibody, V domains shown)
VH: B1 VH with S30D, D31S, S33G, A49S, N50G, T58K, G59S, G99A, H106A
VL: B1 VL with T31S, V47L, L54R, D93E, N94L
B17: 375_H05 (antibody, V domains shown)
VH: B1 VH with D31S, A49S, H106A
VL: B1 VL with T31S, L33V, V47L, L54R, N94T
B18: 368_B11 (antibody, V domains shown)
VH: B1 VH with S30D, D31S, S33G, N35H, A49S, N50G, T58K, G59S, G99A
VL: B1 VL with T31S, V47L, T52S, A55Q, N94S
B19: 375_F02 (antibody, V domains shown)
VH: B1 VH with D31S, N50S, G55S, G59S
VL: B1 VL with T31S, V47L, L54R, N94S
B20: 372_E02 (antibody, V domains shown)
VH: B1 VH with D31S, S33G, N50S, G59S, G99A, H106A
VL: B1 VL with L30I, T31S, L33V, L54R, N94L
B21: 375_E06 (antibody, V domains shown)
VH: B1 VH with D31S, A49S, N50G, T58K, G59S, H106A
VL: B1 VL with T31S, L54R, N94S
B22: 375_F07 (antibody, V domains shown)
VH: B1 VH with A49S, H106A
VL: B1 VL with T31S, V47L, L54R, N94S
B23: 376_C04 (antibody, V domains shown)
VH: B1 VH with D31S, S33G, A49S, H106A
VL: B1 VL with T31S, L33V, V47L, A51V, L54R, A55H
B24: 368_F10 (antibody, V domains shown)
VH: B1 VH with D31S, S33G, N50G, G55S, G59S, G99A
VL: B1 VL with L30V, T31S, L33V, V47L, L54R, N94T
B25: 365_B10 (antibody, V domains shown)
VH: B1 VH with S30D, N35H, N50S, G55S, T58K, G99A, H106A
VL: B1 VL with T31R, V47L, L54R, Y92D, D93N, N94L
B26: 370_B01 (antibody, V domains shown)
VH: B1 VH with S30D, S33G, N35H, A49S, N50G, T58K, G59S, G99A, H106A
VL: B1 VL with T31S, L33V, V47L, A50V, T52S, L54R, D93S, N94L
B27: 371_D07 (antibody, V domains shown)
VH: B1 VH with S30D, S33G, T58K, G99A
VL: B1 VL with L54R, D93E, N94L
B28: 375_F08 (antibody, V domains shown)
VH: B1 VH with D31S, S33G, A49S, N50S, G55S, T58K, G59S
VL: B1 VL with T31S, V47L, L54R, A55H
B29: 369_H03 (antibody, V domains shown)
VH: B1 VH with D31S, N35H, N50S, G55S, T58K, G59S, G99A, H106A
VL: B1 VL with L30V, T31S, V47L, A51T, L54R, N94T
B30: 370_H08 (antibody, V domains shown)
VH: B1 VH with D31S, S33G, N35H, N50S, G59S, G99A
VL: B1 VL with T31S, L33V, V47L, L54R, A55H, D93S, N94L
B31: 368_B10 (antibody, V domains shown)
VH: B1 VH with S30D, D31S, S33G, N35H, N50S, G59S, G99A, H106A
VL: B1 VL with L54R, Y92D, D93E, N94L
B32: 371_A09 (antibody, V domains shown)
VH: B1 VH with D31S, S33G, A49S, N50G, T58K, G59S, G99A, H106A
VL: B1 VL with L30V, L33V, L54R, N94S
B33: 371_A04 (antibody, V domains shown)
VH: B1 VH with S30D, D31S, S33G, A49S, N50S, G55S, G99A, H106A
VL: B1 VL with V47L, A51V, L54R, N94T
B34: 376_E02 (antibody, V domains shown)
VH: B1 VH with D31S, N50G, T58K, H106A
VL: B1 VL with T31S, L33V, L54R, A55H, Y92D, D93N, N94T

The binders below were run against human Fc (human) (assay: ELISA, negative control).

First: B1
Second: B2
The optical density of the first is lower: 0.181 OD for the first, 0.438 OD for the second.

First: B3
Second: B4
The optical density of the first is higher: 0.62 OD for the first, 0.161 OD for the second.

Going from B5 to B6, the optical density falls from 0.268 OD to 0.21 OD.

First: B7
Second: B8
The optical density of the first is higher: 0.388 OD for the first, 0.212 OD for the second.

First: B9
Second: B10
The optical density of the first is lower: 0.187 OD for the first, 0.423 OD for the second.

Going from B11 to B12, the optical density rises from 0.253 OD to 0.271 OD.

Going from B13 to B14, the optical density falls from 0.341 OD to 0.243 OD.

First: B15
Second: B16
The optical density of the first is lower: 0.31 OD for the first, 0.337 OD for the second.

Going from B17 to B18, the optical density rises from 0.167 OD to 0.286 OD.

First: B19
Second: B20
The optical density of the first is lower: 0.205 OD for the first, 0.431 OD for the second.

First: B21
Second: B22
The optical density of the first is higher: 0.188 OD for the first, 0.172 OD for the second.

First: B23
Second: B24
The optical density of the first is lower: 0.219 OD for the first, 0.328 OD for the second.

First: B25
Second: B26
The optical density of the first is lower: 0.322 OD for the first, 0.47 OD for the second.

Compared with B27, B28 is lower in optical density: 0.299 OD for the first, 0.201 OD for the second.

Compared with B29, B30 is higher in optical density: 0.498 OD for the first, 0.538 OD for the second.

Going from B31 to B32, the optical density falls from 0.412 OD to 0.302 OD.

First: B33
Second: B34
The optical density of the first is higher: 0.315 OD for the first, 0.222 OD for the second.
